From publication PMC7810883, “Phosphorylation-induced changes in the PDZ domain of Dishevelled 3” (Scientific Reports, 2021)
Numbering of substitutions follows the chain as printed. Non-standard residues stand in square brackets, D forms with d. pS = N[C@@H](COP(=O)(O)O)C(=O)O

What was measured:
[1] = target: T1, PDZ domain of human Dishevelled 3 (DVL3), aa 243-338, wild type (human, UniProt Q92997 243-338); assay: NMR titration; 1H-15N HSQC of 100 uM 15N-labelled PDZ wt/mutant with increasing amounts of C-terminal peptide (stock 800 uM, up to four-fold over PDZ); 50 mM sodium-phosphate pH 6.5, 50 mM KCl; details: both partners purified
T1 construct: PDZ domain of human Dishevelled 3 (DVL3), residues 243-338; Cloned in pETM11; also called PDZ wt; hDvl3 PDZ WT domain; source: E. coli BL21(DE3), minimal media (15N or 15N,13C labelling), purified (Ni-NTA, TEV, Q-sepharose, SEC); not shown: His6, N-terminal, cleaved
T1 sequence (looked up): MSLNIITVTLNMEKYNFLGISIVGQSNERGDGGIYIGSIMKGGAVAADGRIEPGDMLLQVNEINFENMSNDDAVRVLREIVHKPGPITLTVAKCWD

[2] = target: T2, PDZ domain of human Dishevelled 3 (DVL3), aa 243-338, S280E (human, UniProt Q92997 243-338, S280E); assay: as above; details: both partners purified
T2 construct: PDZ domain of human Dishevelled 3 (DVL3), residues 243-338, phosphomimetic mutant S280E; Made by site-directed mutagenesis of pETM11-PDZ; also called PDZ S280E; source: E. coli BL21(DE3), minimal media (15N or 15N,13C labelling), purified (Ni-NTA, TEV, Q-sepharose, SEC); not shown: His6, N-terminal, cleaved
T2 sequence (looked up): T1 sequence (looked up) with S38E

B1: C-terminal DVL peptide consisting of aa 698-716 from DVL3 with phosphorylated pS700 (peptide, UniProt Q92997 698-716, looked up)
peptide: H-RQ[pS]FRMAMGNPSEFFVDVM-OH
notes: C-terminus of human Dishevelled 3 (DVL3), residues 698-716; The phosphorylation at S700 is told only in the methods; also called C-terminal peptide (698-716); C-terminus ligand
[1]
  binding result: binds
[2]
  binding result: binds
